According to US7176293B1, “Compositions and methods to enhance sensitivity of cancer cells to mitotic stress” (The Wistar Institute of Anatomy and Biology, priority 1999, dated 2007):

How the values were obtained:
Assay type in all cases: cell-based, human
DLD1 cells [1] = test: Mitotic index of unsynchronized DLD1 cells stably expressing Chfr or Chfr-A325, exposed to nocodazole; settings: stably transfected unsynchronized DLD1 cells
Excerpt: To determine whether ubiquitin-protein ligase activity is required for checkpoint function, the Chfr mutant that substitutes Cys325 of the ring finger with Ala was stably-expressed in DLD1 cells. These cells were then exposed to mitotic stress and examined for entry into metaphase. The mitotic index of unsynchronized DLD1 cells exposed to nocodazole is high, indicating the absence of a checkpoint that would delay entry into metaphase in response to mitotic stress.

SAOS2 cells = test: Mitotic index of transiently-transfected SAOS2 cells exposed to the TAXOL drug; settings: SAOS2, TAXOL drug added 36 hours after transfection; 12, 14 and 16 hour timepoints
Protocol: (§1) Stable transfectants were prepared by transfecting DLD1 or U20S cells with 5 μg pSV2-HAchfr or pSV2-HAchfr-M580, or 5 μg pSV2 vector without insert and 1 μg pSV7neo plasmid [Wieczorek et al., supra] using Fugene-6 transfection reagent (Roche). Stably transfected cells were selected with G418. For transient expression, DLD1 or U20S cells were transfected with 5 μg pSV2-HAchfr or pSV2-HAchfrM580 or pSV2 plasmid without insert and 2 μg of a plasmid expressing green fluorescent protein using Fugene-6. SAOS2 cells were transfected as described above, except that the plasmids expressing Chfr were cotransfected with a plasmid expressing green fluorescent protein (GFP).
(§2) Cells were grown on 8-well culture slides coated with human fibronectin (Becton Dickinson) and were examined as either non-synchronized or synchronized cells. […] The slides were sealed with coverslips using Fluoromount-G (Upstate Biotechnology) and visualized with a fluorescence microscope (Leica). […]
Chfr-ΔFHA, a Chfr protein with deletion of residues 2–142 encompassing the FHA domain, was identified as a dominant negative mutant by studying its function in DLD 1 cells. […] 36 hours later, mitotic stress was induced by exposure to the TAXOL™ drug and the mitotic index was determined 8 to 16 hours late. Protein levels were determined by immunoblotting with an antibody that recognizes the N-terminal HA tag of the expressed Chfr proteins. […]

DLD1 cells [2] = test: Entry into metaphase of synchronized DLD1-neo and DLD1-chfr cells under mitotic stress; settings: synchronized DLD1-chfr vs DLD1-neo; drug added 12 hours after release from the G1-S block
Protocol: All cancer cells were grown in DMEM supplemented with glutamine, penicillin, streptomycin and 10% fetal bovine serum (Life Sciences). Normal human epidermal keratinocytes and osteoblasts were grown in KGM2 and OGM media, respectively (Clonetics). The cells were examined either non-synchronized or synchronized. For synchronization, the cells were treated with 2 mM thymidine for 16 hours, then with 0.25 mM thymidine/deoxycytidine for 9 hours, and then with 0.5 μg/ml aphidicolin for 20–24 hours. The cells were washed three times with PBS between each step [Janss et al., 1998, Exp. Cell Res., 243:29–38]. To induce mitotic stress, synchronized or non-synchronized cells were exposed to 0.5 μg/ml nocodazole, 5 μM of the TAXOL™ drug or 0.5 μg/ml colcemid. Cells were grown on 8-well culture slides coated with human fibronectin (Becton Dickinson) and were examined as either non-synchronized or synchronized cells. […] The slides were sealed with coverslips using Fluoromount-G (Upstate Biotechnology) and visualized with a fluorescence microscope (Leica). […] Progression through the cell cycle was monitored by measuring the mitotic index and by flow cytometric analysis of the DNA content of the cells.

DLD1 and U20S cells = test: Mitotic index of stably transfected DLD1 and U20S cells in response to nocodazole
Protocol: as §1, §2
To determine whether Chfr accounted for the different response, DLD1 and U20S cells were prepared to stably express HA-tagged wild-type Chfr or Chfr with the […] substitution (M580) or just the neo selectable marker. […] Furthermore, the different effects of wild-type Chfr and Chfr-M580 could not be attributed to differences in protein expression, as determined by immunoblotting. […]

B1: wild-type Chfr: 664 amino acid human checkpoint protein with FHA and ring finger domains, SEQ ID NO: 2; HA-tagged when expressed in cells (protein, listed as Homo sapiens)
chain: MERPEEGKQSPPPQPWGRLLRLGAEEGEPHVLLRKREWTIGRRRGCDLSFPSNKLVSGDHCRIVVDEKSGQVTLEDTSTSGTVINKLKVVKKQTCPLQTGDVIYLVYRKNEPEHNVAYLYESLSEKQGMTQESFEANKENVFHGTKDTSGAGAGRGADPRVPPSSPATQVCFEEPQPSTSTSDLFPTASASSTEPSPAGRERSSSCGSGGGGISPKGSGPSVASDEVSSFASALPDRKTASFSSLEPQDQEDLEPVKKKMRGDGDLDLNGQLLVAQPRRNAQTVHEDVRAAAGKPDKMEETLTCIICQDLLHDCVSLQPCMHTFCAACYSGWMERSSLCPTCRCPVERICKNHILNNLVEAYLIQHPDKSRSEEDVQSMDARNKITQDMLQPKVRRSFSDEEGSSEDLLELSDVDSESSDISQPYVVCRQCPEYRRQAAQPPHCPAPEGEPGAPQALGDAPSTSVSLTTAVQDYVCPLQGSHALCTCCFQPMPDRRAEREQDPRVAPQQCAVCLQPFCHLYWGCTRTGCYGCLAPFCELNLGDKCLDGVLNNNSYESDILKNYLATRGLTWKNMLTESLVALQRGVFLLSDYRVTGDTVLCYCCGLRSFRELTYQYRQNIPASELPVAVTSRPDCYWGRNCRTQVKAHHAMKFNHICEQTRFKN
modifications: HA tag when expressed
notes: HA-tagged when expressed in cells
mitotic index after exposure to nocodazole (DLD1 cells [1]): low mitotic index
effect on mitotic index compared to cells transfected with empty vector (SAOS2 cells): no effect
entry into metaphase in response to mitotic stress (DLD1 cells [2]): delays entry into metaphase
mitotic index in response to nocodazole (DLD1 and U20S cells): low mitotic index
